In paper doi:10.1101/2023.10.11.561842:

What was measured:
[1] = molecular target: ErNaR, NDQ rhodopsin (light-driven sodium pump) from Erythrobacter sp. HL-111 (Erythrobacter sp. HL-111); assay: SEC
[2] = molecular target: ErNaR, NDQ rhodopsin (light-driven sodium pump) from Erythrobacter sp. HL-111 (Erythrobacter sp. HL-111); assay: cryo-EM structure
[3] = molecular target: ErNaR, NDQ rhodopsin (light-driven sodium pump) from Erythrobacter sp. HL-111 (Erythrobacter sp. HL-111); assay: cryo-EM structure; remark: listed apart in the source
[4] = molecular target: ErNaR, NDQ rhodopsin (light-driven sodium pump) from Erythrobacter sp. HL-111 (Erythrobacter sp. HL-111); assay: SEC; remark: listed apart in the source

Measured: stoichiometry N

ErNaR, NDQ rhodopsin (light-driven sodium pump) from Erythrobacter sp. HL-111 (natural protein)
5: all assays above
